Reference: paper PMC8464079

Columns and labels:
Assay in all cases: fluorescence polarization
MUT-#11 (K513A) = molecular target: T1, MUT-#11 (K513A) (Caenorhabditis elegans, UniProt Q09487 172-535, K513A)
T1 sequence: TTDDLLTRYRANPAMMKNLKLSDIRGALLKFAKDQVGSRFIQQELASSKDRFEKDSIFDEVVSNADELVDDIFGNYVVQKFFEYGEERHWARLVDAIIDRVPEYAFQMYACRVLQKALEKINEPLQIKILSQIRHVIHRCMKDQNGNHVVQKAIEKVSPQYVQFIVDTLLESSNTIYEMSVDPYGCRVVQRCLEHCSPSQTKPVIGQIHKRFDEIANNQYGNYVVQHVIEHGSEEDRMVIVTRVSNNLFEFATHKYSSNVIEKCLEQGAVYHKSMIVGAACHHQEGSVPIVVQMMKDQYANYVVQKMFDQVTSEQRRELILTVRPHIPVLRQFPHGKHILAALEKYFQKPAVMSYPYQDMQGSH

MUT-#13 (K513R) = molecular target: T2, MUT-#13 (K513R) (Caenorhabditis elegans, UniProt Q09487 172-535, K513R)
T2 sequence: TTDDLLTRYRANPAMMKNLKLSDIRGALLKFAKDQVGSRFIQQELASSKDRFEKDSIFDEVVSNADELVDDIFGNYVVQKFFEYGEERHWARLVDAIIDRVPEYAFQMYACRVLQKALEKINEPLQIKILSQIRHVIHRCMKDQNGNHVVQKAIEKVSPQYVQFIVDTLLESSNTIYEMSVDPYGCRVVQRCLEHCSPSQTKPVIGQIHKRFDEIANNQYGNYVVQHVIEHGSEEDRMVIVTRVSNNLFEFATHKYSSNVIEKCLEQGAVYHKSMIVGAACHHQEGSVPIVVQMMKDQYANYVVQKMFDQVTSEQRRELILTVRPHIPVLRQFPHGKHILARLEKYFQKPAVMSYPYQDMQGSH

MUT-4A = molecular target: T3, MUT-4A (Caenorhabditis elegans, UniProt Q09487 172-535, N318C;H319R)
T3 sequence: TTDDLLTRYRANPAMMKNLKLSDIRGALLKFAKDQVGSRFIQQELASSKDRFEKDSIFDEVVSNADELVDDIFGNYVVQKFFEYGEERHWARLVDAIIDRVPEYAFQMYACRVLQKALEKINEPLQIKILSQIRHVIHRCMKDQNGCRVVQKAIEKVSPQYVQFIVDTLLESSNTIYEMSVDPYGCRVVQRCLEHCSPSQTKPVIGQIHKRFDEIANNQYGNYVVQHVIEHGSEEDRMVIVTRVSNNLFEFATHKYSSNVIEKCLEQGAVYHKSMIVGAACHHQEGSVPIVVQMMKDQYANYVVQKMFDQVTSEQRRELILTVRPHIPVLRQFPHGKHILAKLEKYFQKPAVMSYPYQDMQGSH

MUT-#9 (Q476A) = molecular target: T4, MUT-#9 (Q476A) (Caenorhabditis elegans, UniProt Q09487 172-535, Q476A)
T4 sequence: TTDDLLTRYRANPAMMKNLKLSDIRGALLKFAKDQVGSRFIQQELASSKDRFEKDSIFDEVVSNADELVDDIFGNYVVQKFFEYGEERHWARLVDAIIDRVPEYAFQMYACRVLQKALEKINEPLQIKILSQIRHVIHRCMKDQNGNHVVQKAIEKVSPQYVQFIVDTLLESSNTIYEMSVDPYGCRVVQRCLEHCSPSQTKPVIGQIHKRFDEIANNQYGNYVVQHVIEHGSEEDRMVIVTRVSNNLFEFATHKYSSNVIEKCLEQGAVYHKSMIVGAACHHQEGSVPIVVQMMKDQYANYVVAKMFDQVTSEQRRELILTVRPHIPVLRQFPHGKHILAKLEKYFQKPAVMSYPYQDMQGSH

MUT-4N = molecular target: T5, MUT-4N (Caenorhabditis elegans, UniProt Q09487 172-535, N318A;H319A;Q322A)
T5 sequence: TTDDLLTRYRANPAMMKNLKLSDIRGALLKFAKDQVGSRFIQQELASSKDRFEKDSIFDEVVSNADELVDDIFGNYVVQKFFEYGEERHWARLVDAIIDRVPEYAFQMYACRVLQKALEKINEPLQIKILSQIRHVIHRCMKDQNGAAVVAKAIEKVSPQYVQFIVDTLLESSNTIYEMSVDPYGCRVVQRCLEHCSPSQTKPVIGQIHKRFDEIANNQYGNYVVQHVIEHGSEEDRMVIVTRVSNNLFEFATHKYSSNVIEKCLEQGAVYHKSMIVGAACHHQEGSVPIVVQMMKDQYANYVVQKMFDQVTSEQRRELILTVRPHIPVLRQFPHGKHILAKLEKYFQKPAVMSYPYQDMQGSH

PUF-8 WT (FP) = molecular target: T6, PUF-8 WT (FP) (Caenorhabditis elegans, UniProt Q09487 172-535)
T6 sequence: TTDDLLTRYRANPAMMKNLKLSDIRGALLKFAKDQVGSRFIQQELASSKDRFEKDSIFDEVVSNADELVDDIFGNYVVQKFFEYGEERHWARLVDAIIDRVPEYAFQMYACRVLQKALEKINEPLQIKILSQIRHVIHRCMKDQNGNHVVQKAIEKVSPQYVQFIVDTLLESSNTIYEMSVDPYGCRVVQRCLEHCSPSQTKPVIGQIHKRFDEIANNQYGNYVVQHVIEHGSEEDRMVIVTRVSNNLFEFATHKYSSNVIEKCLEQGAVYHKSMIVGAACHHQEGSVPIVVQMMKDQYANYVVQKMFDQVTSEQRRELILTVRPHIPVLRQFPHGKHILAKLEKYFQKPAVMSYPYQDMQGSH

B1: PBE-5A FAM (ssRNA)
RNA: UGUAAAUA
Kd (MUT-#11 (K513A)): 133 ± 29.8 nM | Kd (MUT-#13 (K513R)): 60 ± 13.2 nM | Kd (MUT-4A): 0.44 ± 0.39 nM | Kd (MUT-#9 (Q476A)): 63.5 ± 11.1 nM | Kd (MUT-4N): 161 ± 22 nM | Kd (PUF-8 WT (FP)): 2.49 ± 1.5 nM
